Laboratory results from patent US20200149021, “SYSTEM AND METHOD FOR GENOME EDITING” (INSTITUTE OF ZOOLOGY, CHINESE ACADEMY OF SCIENCES, published 2020).

Experiments:
BsCpf1 = molecular target: T1, BsCpf1 (Butyrivibrio sp. NC30); experiment: cell_activity; PAM TTTC; T7EI; conditions: tags: HA (2A-eGFP vector)
T1 chain: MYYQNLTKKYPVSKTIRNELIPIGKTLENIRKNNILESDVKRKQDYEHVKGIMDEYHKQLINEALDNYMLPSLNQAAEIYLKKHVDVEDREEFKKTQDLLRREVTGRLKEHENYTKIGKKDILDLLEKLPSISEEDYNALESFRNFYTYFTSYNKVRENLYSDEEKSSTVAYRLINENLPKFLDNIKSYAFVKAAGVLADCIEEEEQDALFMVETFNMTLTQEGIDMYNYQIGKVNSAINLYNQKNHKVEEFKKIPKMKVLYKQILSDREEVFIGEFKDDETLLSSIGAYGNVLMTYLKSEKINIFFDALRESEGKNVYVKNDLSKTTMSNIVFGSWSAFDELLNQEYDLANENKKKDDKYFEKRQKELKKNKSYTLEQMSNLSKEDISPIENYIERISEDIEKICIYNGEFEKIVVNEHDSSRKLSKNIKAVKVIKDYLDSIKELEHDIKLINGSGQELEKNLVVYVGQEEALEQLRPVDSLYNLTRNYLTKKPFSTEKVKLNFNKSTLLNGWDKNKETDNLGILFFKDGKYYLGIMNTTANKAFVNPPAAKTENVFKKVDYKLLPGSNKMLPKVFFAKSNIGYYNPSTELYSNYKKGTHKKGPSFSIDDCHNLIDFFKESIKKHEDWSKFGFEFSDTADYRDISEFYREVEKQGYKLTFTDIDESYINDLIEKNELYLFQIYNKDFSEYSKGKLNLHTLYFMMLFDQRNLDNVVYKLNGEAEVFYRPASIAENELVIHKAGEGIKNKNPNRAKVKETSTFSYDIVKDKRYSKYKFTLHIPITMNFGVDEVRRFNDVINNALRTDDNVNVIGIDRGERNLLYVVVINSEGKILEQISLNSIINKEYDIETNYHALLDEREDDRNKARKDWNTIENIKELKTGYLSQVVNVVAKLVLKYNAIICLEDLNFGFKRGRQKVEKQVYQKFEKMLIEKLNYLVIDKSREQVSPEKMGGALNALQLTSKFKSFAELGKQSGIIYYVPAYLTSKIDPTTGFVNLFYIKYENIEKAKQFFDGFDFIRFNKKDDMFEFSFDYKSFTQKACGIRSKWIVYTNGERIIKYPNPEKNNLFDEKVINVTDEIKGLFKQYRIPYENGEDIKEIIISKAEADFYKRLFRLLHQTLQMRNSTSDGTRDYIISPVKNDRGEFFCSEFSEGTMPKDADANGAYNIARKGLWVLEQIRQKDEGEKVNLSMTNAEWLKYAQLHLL
Experimental: (§1) GFP-positive cells were sorted by FACS, lysed with Buffer L+ 1/100V Protease K (Biotool) at 55° C. for 30 min, inactivated at 95° C. for 5 min, and directly used for PCR detection. Appropriate primers were designed near the Cpf1 targeting site, and the amplified product was purified using DNA Clean & Concentrator™-5 kit (ZYMO Research). 200 ng of purified PCR product was added into 1 uL of NEBuffer2 (NEB) and diluted to 10 uL with ddH₂O. Then, heterodimers were formed by re-annealing according to the previously reported method (Li, W., et al., Simultaneous generation and germline transmission of multiple gene mutations in rat using CRISPR-Cas systems. Nat Biotechnol, 2013. 31(8): p. 684-6). The reannealed product was added with 0.3 uL of T7EI endnucelease and 1/10 V NEBuffer2 (NEB), and digested at 37° C. for 1 h 30 min. Genotype analysis was performed by 3% TAE-Gel electrophoresis. Indels were calculated according to the method reported in the previous article (Cong, L., et al., Multiplex genome engineering using CRISPR/Cas systems. Science, 2013. 339(6121): p. 819-23).
(§2) The cells were transfected with Cpf1, crRNA31, and crRNA2 plasmids, and it was confirmed by PCR and T7EI analysis that crRNA31 can increase the editing efficiency of five Cpf1s of ArCpf1, BsCpf1, HkCpf1, PrCpf1, and PxCpf1 at the site MeCP2-4 by two folds (FIG. 13B).

ArCpf1 = molecular target: T2, ArCpf1 (Agathobacter rectalis); experiment: cell_activity; PAM TTTC; T7EI; conditions: tags: NLS, HA (2A-eGFP vector)
T2 chain: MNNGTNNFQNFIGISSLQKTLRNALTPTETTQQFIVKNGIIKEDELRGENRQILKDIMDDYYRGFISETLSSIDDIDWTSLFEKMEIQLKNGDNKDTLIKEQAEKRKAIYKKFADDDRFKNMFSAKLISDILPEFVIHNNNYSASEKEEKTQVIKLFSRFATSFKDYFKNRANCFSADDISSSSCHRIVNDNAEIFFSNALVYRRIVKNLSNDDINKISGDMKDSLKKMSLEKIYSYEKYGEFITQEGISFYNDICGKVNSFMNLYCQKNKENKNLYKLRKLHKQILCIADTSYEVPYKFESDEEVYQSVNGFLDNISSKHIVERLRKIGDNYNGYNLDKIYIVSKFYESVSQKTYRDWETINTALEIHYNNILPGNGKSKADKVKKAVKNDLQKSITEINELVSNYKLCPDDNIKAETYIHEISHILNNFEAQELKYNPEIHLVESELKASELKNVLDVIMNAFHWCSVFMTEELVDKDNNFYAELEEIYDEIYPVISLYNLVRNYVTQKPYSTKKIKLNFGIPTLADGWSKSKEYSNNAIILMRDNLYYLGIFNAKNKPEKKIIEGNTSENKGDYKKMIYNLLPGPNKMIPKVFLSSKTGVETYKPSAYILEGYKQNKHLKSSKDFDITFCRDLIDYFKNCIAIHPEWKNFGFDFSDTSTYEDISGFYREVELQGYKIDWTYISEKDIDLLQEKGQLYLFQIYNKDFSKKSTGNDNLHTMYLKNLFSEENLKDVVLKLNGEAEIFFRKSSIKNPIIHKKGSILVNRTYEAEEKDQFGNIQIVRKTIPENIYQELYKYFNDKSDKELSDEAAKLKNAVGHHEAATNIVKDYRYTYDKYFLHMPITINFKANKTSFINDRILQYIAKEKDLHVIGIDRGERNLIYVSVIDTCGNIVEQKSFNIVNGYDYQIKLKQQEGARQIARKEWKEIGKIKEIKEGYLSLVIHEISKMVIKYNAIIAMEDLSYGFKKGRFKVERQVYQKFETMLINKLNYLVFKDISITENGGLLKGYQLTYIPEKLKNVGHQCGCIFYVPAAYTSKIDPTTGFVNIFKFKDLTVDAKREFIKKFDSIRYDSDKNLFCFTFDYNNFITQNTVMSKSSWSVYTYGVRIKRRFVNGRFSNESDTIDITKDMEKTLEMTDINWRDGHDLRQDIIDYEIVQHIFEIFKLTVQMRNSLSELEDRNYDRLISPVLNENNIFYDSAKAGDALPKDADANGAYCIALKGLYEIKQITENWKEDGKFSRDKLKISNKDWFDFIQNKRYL
Experimental: as §1, §2

B1: crRNA31 MeCP2 site 4 ; Mouse MeCP2 site 4 (ssRNA ; dsDNA)
RNA: AUUUCUACUAUGGUAGAUGUGUCCAACCUUCAGGCAAGGUG
DNA 1: TTTCGTGTCCAACCTTCAGGCAAGGTG
DNA 2: CACCTTGCCTGAAGGTTGGACACGAAA
editing efficiency (BsCpf1): ~2 fold vs crRNA2 | editing efficiency (ArCpf1): ~2 fold vs crRNA2
